{
  "source": "patent US6656716",
  "key": {"[1]": {"target": "T1, KHS1 activation loop peptide # 4, KRKSFIGTPYWMAPE, aa 171-185 (not fully specified)", "T1 chain": "KRKSFIGTPYWMAPE"}, "[2]": {"target": "T2, PAK5 activation loop peptide # 1, (C)RRKSLVGTPYWMAPE, aa 471-485", "T2 chain": "CRRKSLVGTPYWMAPE"}, "[3]": {"target": "T3, PAK5 activation loop peptide # 2, (C)RRKSLVGTPYWMAPE, aa 471-485", "T3 chain": "CRRKSLVGTPYWMAPE"}, "[4]": {"target": "T4, PAK5 activation loop peptide # 3, (C)RRKSLVGTPYWMAPE, aa 471-485 (not fully specified)", "T4 chain": "CRRKSLVGTPYWMAPE"}, "[5]": {"target": "T5, STLK2 activation loop peptide # 5, KRNTFVGTPFWMAPE, aa 175-189 (not fully specified)", "T5 chain": "KRNTFVGTPFWMAPE"}, "[6]": {"target": "T6, STLK4 activation loop peptide # 9, RNKVRKTFVGTPCWMAPE, aa 66-83 (not fully specified)", "T6 chain": "RNKVRKTFVGTPCWMAPE"}, "[7]": {"target": "T7, SULU1 activation loop peptide # 6, PANSFVGTPYWMAPE, aa 174-188 (not fully specified)", "T7 chain": "PANSFVGTPYWMAPE"}, "[8]": {"target": "T8, ZC1 activation loop peptide # 7, RRNTFIGTPYWMAPE, aa 184-198 (SEQ ID 125) (not fully specified)", "T8 chain": "RRNTFIGTPYWMAPE"}, "[9]": {"target": "T9, ZC1 activation loop peptide # 8, RRNTFIGTPYWMAPE, aa 184-198 (SEQ ID 126)", "T9 chain": "RRNTFIGTPYWMAPE"}},
  "data": [
    {"protein": "human PAK5 (protein) MFGKRKKRVEISAPSNFEHRVHTGFDQHEQKFTGLPRQWQSLIEESARRPKPLVDPACITSIQPGAPKTIVRGSKGAKDGALTLLLDEFENMSVTRSNSLRRDSPPPPARARQENGMPEEPATTARGGPGKAGSRGRFAGHSEAGGGSGDRRRAGPEKRPKSSREGSGGPQESSRDKRPLSGPDVGTPQPAGLASGAKLAAGRPFNTYPRADTDHPSRGAQGEPHDVAPNGPSAGGLAIPQSSSSSSRPPTRARGAPSPGVLGPHASEPQLAPPACTPAAPAVPGPPGPRSPQREPQRVSHEQFRAALQLVVDPGDPRSYLDNFIKIGEGSTGIVCIATVRSSGKLVAVKKMDLRKQQRRELLFNEVVIMRDYQHENVVEMYNSYLVGDELWVVMEFLEGGALTDIVTHTRMNEEQIAAVCLAVLQALSVLHAQGVIHRDIKSDSILLTHDGRVKLSDFGFCAQVSKEVPRRKSLVGTPYWMAPELISRLPYGPEVDIWSLGIMVIEMVDGEPPYFNEPPLKAMKMIRDNLPPRLKNLHKVSPSLKGFLDRLLVRDPAQRATAAELLKHPFLAKAGPPASIVPLMRQNRTR", "values": [
      {"measurement": "substrate (in vitro kinase assay)", "setting": "[1]", "result": "yes"},
      {"measurement": "substrate (in vitro kinase assay)", "setting": "[2]", "result": "yes"},
      {"measurement": "substrate (in vitro kinase assay), note", "setting": "[2]", "result": "Equally well as MBB"},
      {"measurement": "Km", "setting": "[3]", "result": "High Km for PAK5 (1-10 µM)"},
      {"measurement": "substrate (in vitro kinase assay)", "setting": "[3]", "result": "yes"},
      {"measurement": "substrate (in vitro kinase assay)", "setting": "[4]", "result": "no"},
      {"measurement": "substrate (in vitro kinase assay)", "setting": "[5]", "result": "poor"},
      {"measurement": "substrate (in vitro kinase assay)", "setting": "[6]", "result": "poor"},
      {"measurement": "substrate (in vitro kinase assay)", "setting": "[7]", "result": "poor"},
      {"measurement": "substrate (in vitro kinase assay)", "setting": "[8]", "result": "poor"},
      {"measurement": "substrate (in vitro kinase assay)", "setting": "[9]", "result": "poor"},
      {"measurement": "substrate (in vitro kinase assay), note", "setting": "[9]", "result": "Better than 7"}
    ]}
  ]
}
